Measured values taken from patent publication US12459997B2, “Compounds and methods targeting interleukin-19” (Eli Lilly and Company, priority 2018, dated 2025).
Each block holds one molecule with its values, some of them ahead of it.

What was measured:
Ps0 patients = experiment: Ps0 study in anti-IL-23 treatment groups: serum IL-19 and PASI; assay type: in vivo, human
From the text: According to an exemplified embodiment, a sandwich ELISA assay for the sensitive detection of IL-19 is provided herein. According to an exemplified embodiment, a first IL-19 antibody (selected from Table 1, 2 or 3) is utilized as an IL-19 capture antibody and a second IL-19 antibody (selected from Table 1, 2 or 3) is utilized as an IL-19 reporter antibody. […] According to some embodiments, one milligram of the first IL-19 antibody (the capture antibody) is biotinylated using Pierce biotinylation kit (Cat #) and one milligram of the second IL-19 antibody (the reporter antibody) is labeled with ruthenium using MesoScale Discovery (MSD) kit for electrochemiluminescent (ECL) detection. According to such embodiment, labeled antibodies are evaluated using MALDI-TOF to ensure suitable labeling, and then diluted in 50% glycerol and stored at −20° C. prior to use.
Streptavidin-coated 96-well MSD plates are washed three times with TBST (Tris buffered saline containing 10 mmol/L Tris pH 7.40, 150 mmol/L NaCl with 1 mL Tween 20/L) and then blocked with TBS-T plus 1% BSA for 1 hour at room temperature. Plates are again washed and wells are then incubated with biotinylated IL-19 capture antibody (1 mg/L) for 1 hour. Thereafter, plates are again washed prior to patient sample testing.
During patient sample testing, a standard curve is generated using 50 μL of recombinant human IL-19 control standard (serially diluted IL-19 recombinant protein ranging from 100-0.0001 ng/L, and including a zero blank, in assay buffer of 50 mmol/L HEPES, pH 7.40, 150 mmol/L NaCl, 10 mL/L Triton X-100, 5 mmol/L EDTA, and 5 mmol/L EGTA). […] Patient samples (which, according to the present invention, may include blood, serum or plasma) are diluted 1:4 in assay buffer and added to respective wells. The plate is incubated overnight at 4° C. Following incubation, wells are aspirated and washed 3 times with TBST. Thereafter, 50 μL of ruthenium-labeled IL-19 detection antibody (0.5 mg/L) is added to the wells for a 1-hour incubation at room temperature. Following incubation, wells are aspirated and washed 3 times with TBST. Thereafter, 150 μl of 2×MSD read buffer is added. Ruthenium electrochemiluminescence in the wells is detected using a MSD Sector 6000 plate reader. Data is analyzed and IL-19 MSD immunoassay calibration curve fitting is performed using MesoScale Discovery software. SAS® software version 9.4 (PROC MIXED) is used for assessing treatment effects on IL-19 levels using a mixed effects model with an unstructured covariance matrix and log10 transformed IL-19 concentrations (SAS. Version 9.4 for UNIX; SAS Institute Inc.: Cary, N.C., 2016). Statistical analysis is generated with the ggplot and pROC packages using R version 3.3.3 statistical computing environment (www.R-project.org, Vienna, Austria, 2017).
A study of IL-19 levels, in serum of Ps0 patients treated with a therapeutic antibody targeting IL-23, mirikizumab, is performed. […] Administration of each treatment group, as a single subcutaneous dose, occurs at day 0. […] IL-19 levels are also assessed for prognostic value with PASI improvement between visits 2 and 12. Serum IL-19 concentration levels are presented in Table 14; a comparative of serum levels at week 8 is presented in Table 15; and prognostic values at week 8 showing correlations of IL-19 serum levels and PASI in psoriasis patients (21 ng/L, indicates the upper limit of the normal range of IL-19 in healthy subjects) are presented in Table 16.

[1] = biological target: T1, human IL-19 / human IL-20R beta Fc-fusion protein (Homo sapiens, UniProt Q9UHD0); experiment: BLI in vitro neutralization: IL-19 captured by antibody, then incubated with IL-20R beta Fc; conditions: block of IL-19 binding to soluble receptor
T1 sequence (Q9UHD0 25-177): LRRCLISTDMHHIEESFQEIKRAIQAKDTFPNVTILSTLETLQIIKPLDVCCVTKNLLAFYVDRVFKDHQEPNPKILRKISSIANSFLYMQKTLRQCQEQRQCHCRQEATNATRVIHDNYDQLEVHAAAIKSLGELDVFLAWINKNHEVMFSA
From the text: Alternatively, a biophysical assay such as bio-layer interferometry (BLI) may be used for assessing neutralization of IL-19 by antibodies of the present invention. Binding between a ligand immobilized on the biosensor tip surface and an analyte in solution produces an increase in optical thickness at the biosensor tip, which results in a wavelength shift (expressed in nm). According to such assay, the IL-19 receptor (i.e., […]) is expressed in a membrane-free manner (such as with an Fc-fusion e.g. IL20Rbeta Fc chimera protein from R&D Systems catalog 1788-IR-050). […] The immobilized antibodies are then incubated with recombinant human IL-19 protein diluted to 100 nM using HBS-EP+ running buffer (GE Healthcare, 10 mM Hepes pH7.4+150 mM NaCl+3 mM EDTA+0.05% surfactant P20) for 240-300 secs. The human IL-19, after binding to the anti-IL-19 antibody, is assessed by incubation with human IL-20R beta Fc-fusion protein for 240-300 secs. The ability of the antibody to block or neutralize binding of the IL-19 ligand to the soluble receptor is observed as a minimal (<0.025 nm) increase in the wavelength during this step of the assay.

B1: mirikizumab (antibody, chains of the INN, looked up, V domains shown)
VH: QVQLVQSGAEVKKPGSSVKVSCKASGYKFTRYVMHWVRQAPGQGLEWMGYINPYNDGTNYNEKFKGRVTITADKSTSTAYMELSSLRSEDTAVYYCARNWDTGLWGQGTTVTVSS
VL: DIQMTQSPSSLSASVGDRVTITCKASDHILKFLTWYQQKPGKAPKLLIYGATSLETGVPSRFSGSGSGTDFTLTISSLQPEDFATYYCQMYWSTPFTFGGGTKVEIK
notes: therapeutic antibody targeting IL-23
IL-19 (geometric mean) serum levels (Ps0 patients; 5 mg single subcutaneous dose, Day 1 (baseline)): 16.2 pg/mL
IL-19 (geometric mean) serum levels (Ps0 patients; 5 mg single subcutaneous dose, Day 15): 13.9 pg/mL
IL-19 (geometric mean) serum levels (Ps0 patients; 5 mg single subcutaneous dose, Day 29): 10.4 pg/mL
IL-19 (geometric mean) serum levels (Ps0 patients; 5 mg single subcutaneous dose, Day 57): 13.2 pg/mL
IL-19 (geometric mean) serum levels (Ps0 patients; 5 mg single subcutaneous dose, Day 71): 14.5 pg/mL
IL-19 (geometric mean) serum levels (Ps0 patients; 20 mg single subcutaneous dose, Day 1 (baseline)): 37.2 pg/mL
IL-19 (geometric mean) serum levels (Ps0 patients; 20 mg single subcutaneous dose, Day 15): 27.2 pg/mL
IL-19 (geometric mean) serum levels (Ps0 patients; 20 mg single subcutaneous dose, Day 29): 25.4 pg/mL
IL-19 (geometric mean) serum levels (Ps0 patients; 20 mg single subcutaneous dose, Day 57): 33.5 pg/mL
IL-19 (geometric mean) serum levels (Ps0 patients; 20 mg single subcutaneous dose, Day 71): 28.4 pg/mL
IL-19 (geometric mean) serum levels (Ps0 patients; 60 mg single subcutaneous dose, Day 1 (baseline)): 49.8 pg/mL
IL-19 (geometric mean) serum levels (Ps0 patients; 60 mg single subcutaneous dose, Day 15): 9.0 pg/mL
IL-19 (geometric mean) serum levels (Ps0 patients; 60 mg single subcutaneous dose, Day 29): 10.8 pg/mL
IL-19 (geometric mean) serum levels (Ps0 patients; 60 mg single subcutaneous dose, Day 57): 11.9 pg/mL
IL-19 (geometric mean) serum levels (Ps0 patients; 60 mg single subcutaneous dose, Day 71): 10.9 pg/mL
IL-19 (geometric mean) serum levels (Ps0 patients; 120 mg single subcutaneous dose, Day 1 (baseline)): 52.4 pg/mL
IL-19 (geometric mean) serum levels (Ps0 patients; 120 mg single subcutaneous dose, Day 15): 26.6 pg/mL
IL-19 (geometric mean) serum levels (Ps0 patients; 120 mg single subcutaneous dose, Day 29): 25.2 pg/mL
IL-19 (geometric mean) serum levels (Ps0 patients; 120 mg single subcutaneous dose, Day 57): 22.2 pg/mL
IL-19 (geometric mean) serum levels (Ps0 patients; 120 mg single subcutaneous dose, Day 71): 18.2 pg/mL
IL-19 (geometric mean) serum levels (Ps0 patients; 200 mg single subcutaneous dose, Day 1 (baseline)): 69.6 pg/mL
IL-19 (geometric mean) serum levels (Ps0 patients; 200 mg single subcutaneous dose, Day 15): 36.0 pg/mL
IL-19 (geometric mean) serum levels (Ps0 patients; 200 mg single subcutaneous dose, Day 29): 23.3 pg/mL
IL-19 (geometric mean) serum levels (Ps0 patients; 200 mg single subcutaneous dose, Day 57): 21.9 pg/mL
IL-19 (geometric mean) serum levels (Ps0 patients; 200 mg single subcutaneous dose, Day 71): 22.5 pg/mL
IL-19 (geometric mean) serum levels (Ps0 patients; 300 mg, Week 0 (Baseline)): 106.5 pg/mL
IL-19 (geometric mean) serum levels (Ps0 patients; 300 mg, Week 8 (End of induction)): 18.2 pg/mL
% of patients with serum IL-19 concentration ≤ 21 pg/mL (Ps0 patients; 300 mg, week 8): 58.3% (28/48)
% patients with serum IL-19 concentration ≤ 21 pg/mL achieving at least PASI 75 (Ps0 patients; 300 mg, week 8): 71.4% (20/28)
% patients with serum IL-19 concentration ≤ 21 pg/mL not achieving at least PASI 75 (Ps0 patients; 300 mg, week 8): 28.6% (8/28)
IL-19 (geometric mean) serum levels (Ps0 patients; 350 mg single subcutaneous dose, Day 1 (baseline)): 58.4 pg/mL
IL-19 (geometric mean) serum levels (Ps0 patients; 350 mg single subcutaneous dose, Day 15): 35.2 pg/mL
IL-19 (geometric mean) serum levels (Ps0 patients; 350 mg single subcutaneous dose, Day 29): 22.4 pg/mL
IL-19 (geometric mean) serum levels (Ps0 patients; 350 mg single subcutaneous dose, Day 57): 23.7. pg/ml
IL-19 (geometric mean) serum levels (Ps0 patients; 350 mg single subcutaneous dose, Day 71): 18.0 pg/mL
IL-19 (geometric mean) serum levels (Ps0 patients; 600 mg single subcutaneous dose, Day 1 (baseline)): 57.3 pg/mL
IL-19 (geometric mean) serum levels (Ps0 patients; 600 mg single subcutaneous dose, Day 15): 30.1 pg/mL
IL-19 (geometric mean) serum levels (Ps0 patients; 600 mg single subcutaneous dose, Day 29): 21.8 pg/mL
IL-19 (geometric mean) serum levels (Ps0 patients; 600 mg single subcutaneous dose, Day 57): 14.4. pg/ml
IL-19 (geometric mean) serum levels (Ps0 patients; 600 mg single subcutaneous dose, Day 71): 15.8 pg/mL

Neutralization [1]: No
B2: M_2: murine-derived IL-19 antibody; LC SEQ ID NO: 10, HC SEQ ID NO: 14 (antibody)
heavy: LVQLQQSDAELVKPGASLKISCKVSGYTFTDHALHWMKQRPEQGLEWIGYIYPRDGSTKYNEKFKGKATLTADRSSSTAYMELNSLTSEDSAVYFCARGWDFAMDYWGQGTSVTVSSAKTTPPSVYPLAPGSAAQTNSMVTLGCLVKGYFPEPVTVTWNSGSLSSGVHTFPAVLQSDLYTLSSSVTVPSSTWPSETVTCNVAHPASSTKVDKKIVPRDCGCKPCICTVPEVSSVFIFPPKPKDVLTITLTPKVTCVVVDISKDDPEVQFSWFVDDVEVHTAQTQPREEQFNSTFRSVSELPIMHQDWLNGKEFKCRVNSAAFPAPIEKTISKTKGRPKAPQVYTIPPPKEQMAKDKVSLTCMITDFFPEDITVEWQWNGQPAENYKNTQPIMDTDGSYFVYSKLNVQKSNWEAGNTFTCSVLHEGLHNHHTEKSLSHSPGK
light: DIVLTQSPESLAVSLGQRATISCRASESVDNYGISFIHWYQQKPGQPPKLLIYRASNLKSGIPARFSGRGSRTDFTLTINPVETDDVATYYCQQINKDPLTFGAGTKLELKRADAAPTVSIFPPSSEQLTSGGASVVCFLNNFYPKDINVKWKIDGSERQNGVLNSWTDQDSKDSTYSMSSTLTLTKDEYERHNSYTCEATHKTSTSPIVKSFNRNEC
